Results from patent US20220251237A1 (R P SCHERER TECHNOLOGIES, published 2022).

Key:
[1] = molecular target: T1, human glypican-5 His-tagged protein (R&D Systems) (human, UniProt P78333 25-551, limits assumed); experiment: ELISA, plate coated with 1 µg/mL His-tagged glypican
T1 construct: Bought; not shown: His tag
T1 sequence (looked up): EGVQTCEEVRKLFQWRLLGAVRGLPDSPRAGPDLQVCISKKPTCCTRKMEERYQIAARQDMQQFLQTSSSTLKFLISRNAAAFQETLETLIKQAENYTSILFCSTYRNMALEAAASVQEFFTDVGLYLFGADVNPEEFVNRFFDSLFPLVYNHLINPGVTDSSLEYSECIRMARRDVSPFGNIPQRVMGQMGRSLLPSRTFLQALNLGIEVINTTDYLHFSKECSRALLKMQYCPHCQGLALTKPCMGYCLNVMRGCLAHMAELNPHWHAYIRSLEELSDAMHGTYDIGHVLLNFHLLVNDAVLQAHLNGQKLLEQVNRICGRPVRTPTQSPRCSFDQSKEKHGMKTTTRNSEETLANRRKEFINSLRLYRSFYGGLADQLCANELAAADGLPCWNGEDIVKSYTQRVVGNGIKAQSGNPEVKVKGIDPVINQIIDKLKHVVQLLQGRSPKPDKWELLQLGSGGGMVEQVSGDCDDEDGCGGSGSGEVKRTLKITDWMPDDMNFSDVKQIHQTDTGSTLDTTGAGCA
Experimental: (§1) To perform the ELISA, Maxisorp 96-well plates (Nunc) were coated overnight at 4° C. with 1 μg/mL of human glypican His-tagged proteins (glypican-1, glypican-2, glypican-3, glypican-5, and glypican-6 all from R&D Systems) in PBS. The plates were blocked with casein buffer (ThermoFisher), and then CAT-07 was plated in an 11-step series of 2-fold dilutions starting at 150 ng/mL. The plates was incubated, shaking, at room temperature for 2 h. After washing in PBS 0.1% Tween-20, bound analyte was detected with a donkey anti-human Fc-γ-specific horseradish peroxidase (HRP)-conjugated secondary antibody. Signals were visualized with Ultra TMB (Pierce) and quenched with 2 N H₂SO₄. Absorbance at 450 nm was determined using a Molecular Devices SpectraMax M5 plate reader and the data were analyzed using GraphPad Prism.

[2] = molecular target: T2, human glypican-2 His-tagged protein (R&D Systems) (human, UniProt Q8N158 24-554, limits assumed); experiment: as above
T2 construct: Bought; not shown: His tag
T2 sequence (looked up): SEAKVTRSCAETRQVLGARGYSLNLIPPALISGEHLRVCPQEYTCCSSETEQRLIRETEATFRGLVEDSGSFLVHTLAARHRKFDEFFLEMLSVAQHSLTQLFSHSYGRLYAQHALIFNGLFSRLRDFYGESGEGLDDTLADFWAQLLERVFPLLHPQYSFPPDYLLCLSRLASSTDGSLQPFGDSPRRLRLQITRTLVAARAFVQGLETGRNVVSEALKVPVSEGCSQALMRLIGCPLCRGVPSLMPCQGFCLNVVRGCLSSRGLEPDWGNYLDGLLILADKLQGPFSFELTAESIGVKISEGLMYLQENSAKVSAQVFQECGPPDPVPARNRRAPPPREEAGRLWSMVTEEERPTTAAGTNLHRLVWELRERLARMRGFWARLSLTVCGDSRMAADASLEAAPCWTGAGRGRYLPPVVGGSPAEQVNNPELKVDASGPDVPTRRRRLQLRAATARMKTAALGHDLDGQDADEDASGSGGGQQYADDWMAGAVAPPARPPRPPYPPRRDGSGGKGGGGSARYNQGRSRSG
Experimental: as §1

[3] = molecular target: T3, human glypican-1 His-tagged protein (R&D Systems) (human, UniProt P35052 24-530, limits assumed); experiment: as above
T3 construct: Bought; not shown: His tag
T3 sequence (looked up): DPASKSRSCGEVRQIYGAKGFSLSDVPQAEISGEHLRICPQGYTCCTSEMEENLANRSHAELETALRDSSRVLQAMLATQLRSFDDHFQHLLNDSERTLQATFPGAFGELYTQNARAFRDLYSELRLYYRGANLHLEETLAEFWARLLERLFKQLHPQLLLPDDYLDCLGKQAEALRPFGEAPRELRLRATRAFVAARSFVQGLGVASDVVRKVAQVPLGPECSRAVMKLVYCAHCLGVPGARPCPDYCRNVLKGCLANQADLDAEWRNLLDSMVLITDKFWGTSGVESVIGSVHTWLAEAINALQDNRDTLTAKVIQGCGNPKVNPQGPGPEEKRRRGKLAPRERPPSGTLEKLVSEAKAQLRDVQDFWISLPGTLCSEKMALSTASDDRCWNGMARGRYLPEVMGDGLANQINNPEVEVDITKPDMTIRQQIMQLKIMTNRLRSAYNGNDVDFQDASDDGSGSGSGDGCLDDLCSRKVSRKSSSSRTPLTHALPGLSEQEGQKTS
Experimental: as §1

[4] = molecular target: T4, human glypican-6 His-tagged protein (R&D Systems) (human, UniProt Q9Y625 24-529, limits assumed); experiment: as above
T4 construct: Bought; not shown: His tag
T4 sequence (looked up): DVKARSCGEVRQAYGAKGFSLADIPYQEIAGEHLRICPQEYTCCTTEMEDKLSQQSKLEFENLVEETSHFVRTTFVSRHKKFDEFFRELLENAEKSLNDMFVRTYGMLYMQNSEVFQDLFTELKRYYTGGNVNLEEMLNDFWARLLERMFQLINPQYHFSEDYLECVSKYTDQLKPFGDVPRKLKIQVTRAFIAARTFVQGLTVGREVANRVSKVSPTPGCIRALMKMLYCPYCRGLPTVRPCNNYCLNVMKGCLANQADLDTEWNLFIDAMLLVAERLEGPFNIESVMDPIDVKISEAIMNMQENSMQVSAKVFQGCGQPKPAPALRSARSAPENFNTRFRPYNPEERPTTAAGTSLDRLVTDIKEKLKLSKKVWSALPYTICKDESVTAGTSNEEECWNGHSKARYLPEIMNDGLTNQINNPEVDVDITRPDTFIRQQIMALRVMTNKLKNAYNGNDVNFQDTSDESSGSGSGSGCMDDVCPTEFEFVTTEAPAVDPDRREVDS
Experimental: as §1

[5] = molecular target: T5, human glypican-3-His (R&D Systems) (human, UniProt P51654 25-559); experiment: ELISA, plate coated with 1 µg/mL human glypican-3-His
T5 construct: Bought His-tagged protein; also called recombinant human glypican-3 protein; GPC3; not shown: His tag
Experimental: as §1, with “human glypican-3-His (R&D” for “human glypican His-tagged proteins (glypican-1, glypican-2, glypican-3, glypican-5, and glypican-6 all from R&D”, “The plate was” for “The plates were”, “The plate” for “The plates”

T5 sequence (P51654 25-559 limits assumed): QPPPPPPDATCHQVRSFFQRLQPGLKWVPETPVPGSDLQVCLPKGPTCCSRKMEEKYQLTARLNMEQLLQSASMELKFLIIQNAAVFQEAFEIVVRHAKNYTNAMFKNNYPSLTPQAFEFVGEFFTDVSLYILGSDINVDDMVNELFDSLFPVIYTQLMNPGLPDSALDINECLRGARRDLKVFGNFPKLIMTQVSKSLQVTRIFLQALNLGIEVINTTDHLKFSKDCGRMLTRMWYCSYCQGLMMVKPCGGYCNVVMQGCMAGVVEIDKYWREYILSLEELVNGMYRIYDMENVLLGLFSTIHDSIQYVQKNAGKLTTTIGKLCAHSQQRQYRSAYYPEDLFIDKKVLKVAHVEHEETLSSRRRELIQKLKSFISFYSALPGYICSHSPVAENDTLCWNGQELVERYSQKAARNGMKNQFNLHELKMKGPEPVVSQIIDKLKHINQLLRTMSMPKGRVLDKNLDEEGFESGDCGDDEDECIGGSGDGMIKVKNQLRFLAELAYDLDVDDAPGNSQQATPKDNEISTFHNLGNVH

B1: CAT-07 monoclonal antibody (antibody, human IgG1, kappa, V domains shown)
VH: QVQLVQSGAEVKKPGASVKVSCKASGYTFTSYFLHWVRQAPGQGLEWMGIIDPPTGRTTYAQKFQGRVTMTRDTSTSTVYMELSSLRSEDTAVYYCARGNYGGRYFDYWGQGTLVTVSS
VL: not shown
binding result [1]: no binding (tested: 2-fold dilutions starting at 150 ng/mL) | binding result [2]: no binding (tested: 2-fold dilutions starting at 150 ng/mL) | binding result [3]: no binding (tested: 2-fold dilutions starting at 150 ng/mL) | binding result [4]: no binding (tested: 2-fold dilutions starting at 150 ng/mL) | binding result [5]: binds
